Laboratory results taken from patent US20160002357A1 (Pfizer, published 2016).
Residue numbers refer to the chain shown, from its start.

B1: anti-P-cadherin scFv 153 (parental clone 153), displayed on phage (scFv, V domains shown)
VH: EVQLVQSGAEVKKPGASVKVSCKASGYTFTSYGISWVRQAPGQGLEWMGWISAYNGNTNYAQKLQGRVTMTTDTSTSTAYMELRSLRSDDTAVYYCATIDTANAFGIWGQGTMVTVSS
VL: QSVLTQPPSVSAAPGQKVTISCSGSSSNIGNNYVSWYQQLPGTAPKLLIYDNNKRPSGIPDRFSGSKSGTSATLGITGLQTGDEADYYCGTWDSSLSGVVFGGGTKLTVL
notes: scFv expressed on the surface of phage
B2: anti-P-cadherin scFv 153 alanine-mutant L3.2-Ala (scFv, V domains shown)
VH: B1 VH
VL: B1 VL with T91A
notes: scFv on phage
B3: anti-P-cadherin scFv 153 alanine-mutant L3.5-Ala (scFv, V domains shown)
VH: B1 VH
VL: B1 VL with S94A
notes: scFv on phage
B4: anti-P-cadherin scFv 153 alanine-mutant L3.6-Ala (scFv, V domains shown)
VH: B1 VH
VL: B1 VL with S95A
notes: scFv on phage
B5: anti-P-cadherin scFv 153 alanine-mutant L3.10-Ala (scFv, V domains shown)
VH: B1 VH
VL: B1 VL with V99A
notes: scFv on phage
B6: anti-P-cadherin scFv 153 alanine-mutant L3.4-Ala (scFv, V domains shown)
VH: B1 VH
VL: B1 VL with D93A
notes: scFv on phage
B7: anti-P-cadherin scFv 153 alanine-mutant L3.3-Ala (scFv, V domains shown)
VH: B1 VH
VL: B1 VL with W92A
notes: scFv on phage
B8: anti-P-cadherin scFv 153 alanine-mutant L2.6-Ala (scFv, V domains shown)
VH: B1 VH
VL: B1 VL with P56A
notes: scFv on phage
B9: anti-P-cadherin scFv 153 alanine-mutant L3.9-Ala (scFv, V domains shown)
VH: B1 VH
VL: B1 VL with G98A
notes: scFv on phage
B10: anti-P-cadherin scFv 153 alanine-mutant L2.7-Ala (scFv, V domains shown)
VH: B1 VH
VL: B1 VL with S57A
notes: scFv on phage
B11: anti-P-cadherin scFv 153 alanine-mutant L3.1-Ala (scFv, V domains shown)
VH: B1 VH
VL: B1 VL with G90A
notes: scFv on phage
B12: anti-P-cadherin scFv 153 alanine-mutant L2.5-Ala (scFv, V domains shown)
VH: B1 VH
VL: B1 VL with R55A
notes: scFv on phage
B13: anti-P-cadherin scFv 153 alanine-mutant L3.11-Ala (scFv, V domains shown)
VH: B1 VH
VL: B1 VL with V100A
notes: scFv on phage
B14: anti-P-cadherin scFv 153 alanine-mutant L3.7-Ala (scFv, V domains shown)
VH: B1 VH
VL: B1 VL with L96A
notes: scFv on phage
B15: anti-P-cadherin scFv 153 alanine-mutant L3.8-Ala (scFv, V domains shown)
VH: B1 VH
VL: B1 VL with S97A
notes: scFv on phage
B16: 153 EK-DART (P-CAD 153 x CD3-2) (bispecific antibody)
chain 1: QSVLTQPPSVSAAPGQKVTISCSGSSSNIGNNYVSWYQQLPGTAPKLLIYDNNKRPSGIPDRFSGSKSGTSATLGITGLQTGDEADYYCGTWDSSLSGVVFGGGTKLTVLGGGSGGGGEVQLVESGGGLVQPGGSLRLSCAASGFTFNTYAMNWVRQAPGKGLEWVARIRSKYNNYATYYADSVKDRFTISRDDSKNSLYLQMNSLKTEDTAVYYCVRHGNFGNSYVSWFAYWGQGTLVTVSSGGCGGGKVAALKEKVAALKEKVAALKEKVAALKE
chain 2: QAVVTQEPSLTVSPGGTVTLTCRSSTGAVTTSNYANWVQQKPGQAPRGLIGGTNKRAPWTPARFSGSLLGGKAALTITGAQAEDEADYYCALWYSNLWVFGGGTKLTVLGGGGSGGGGEVQLVQSGAEVKKPGASVKVSCKASGYTFTSYGISWVRQAPGQGLEWMGWISAYNGNTNYAQKLQGRVTMTTDTSTSTAYMELRSLRSDDTAVYYCATIDTANAFGIWGQGTMVTVSSGGCGGGEVAALEKEVAALEKEVAALEKEVAALEK
B17: 180 EK-DART (bispecific antibody)
chain 1: B16 chain 1 with L4V, G98A, V99Y, G103T, L107V
chain 2: B16 chain 2 with G224D
notes: also called P-CAD 180 EK-DART (CD3-2)
B18: 179 EK-DART (bispecific antibody)
chain 1: B16 chain 1 with S26R, N52S, G98S, V99W
chain 2: B16 chain 2 with G224D
B19: 154 EK-DART (bispecific antibody)
chain 1: B16 chain 1 with G98S, V99Y, G103T, L107V
chain 2: B16 chain 2 with N221T, G224D
B20: 177 EK-DART (bispecific antibody)
chain 1: B16 chain 1 with G98A, V99Y, G103T, L107V
chain 2: B16 chain 2 with G224D
notes: the K-coil chain is assembled from parts with CD3-2 VH
B21: 165 EK-DART (bispecific antibody)
chain 1: B16 chain 1 with T81A, G98A, V99Y, G103T, L107V
chain 2: B16 chain 2 with G224D
B22: 178 EK-DART (bispecific antibody)
chain 1: B16 chain 1 with G98A
chain 2: B16 chain 2 with G224D

Molecular target: T1, P-cadherin-ECD1-3-Fc protein (human P-cadherin-Fc) (human, UniProt P22223 108-440)
T1 construct: Construct was expressed with signal peptide and pro-peptide (PACE co-transfected to process the propeptide); not shown: hinge and CH2 and CH3 domains of human IgG1
Assay: phage scFv ELISA, coated P-cadherin-ECD1-3-Fc
Protocol: ScFvs may be expressed on the surface of a phage particle. To prepare phage expressing scFv on their surface, 96-deep well plates containing 1 mL 2× TY media with 2% glucose/100 μg/mL ampicillin were inoculated with 0.5-1 μL from thawed glycerol stocks (one clone per well) using the QPix™2 Colony picker (Molecular Devices, Sunnyvale Calif.) and grown at 37° C. (900 rpm) for ˜4 hours. Next, 5 μL of a 1:29 dilution of helper phage (8.3×10¹³ pfu) was added and the plates and incubated for a further 30 minutes at 37° C. with no shaking then 1 hour at 300 rpm. Plates were centrifuged and the media was replaced with a kanamycin/non-glucose containing media (2× TY with 50 μg/mL kanamycin and 100 μg/mL ampicillin). Plates were grown overnight at 25° C. (900 rpm), and phage were harvested in the supernatant following centrifugation.
P-cadherin-ECD1-3-Fc protein or negative control protein was coated overnight at 4° C. on 96-well Nunc Maxisorp® plates (Thermo Fisher Scientific, Madison, Conn.) at a concentration of 2 μg/mL in PBS+Ca²⁺ and Mg²⁺. Plates were washed three times using PBS+Ca²⁺ and Mg²⁺ and blocked for 1 hour at room temperature in 3% milk/PBS+Ca²⁺ and Mg²⁺. Phage samples prepared as described above were added to the blocked plates for 1 hour at room temperature. Plates were washed three times with PBS+Ca²⁺ and Mg²⁺ prior to the addition of secondary antibody (anti M13-HRP 1:2000, GE Healthcare, Piscataway, N.J.). Plates were incubated for a further 1 hour at room temperature and washed six times with PBS+Ca²⁺ and Mg²⁺. Signal was developed using TMB (SurModics, Eden Prairie, Minn.), the reaction stopped with H₂SO₄ and the absorbance read at 450 nm on an EnVision® plate reader (Perkin Elmer, Waltham, Mass.).

T1 sequence (P22223 108-440): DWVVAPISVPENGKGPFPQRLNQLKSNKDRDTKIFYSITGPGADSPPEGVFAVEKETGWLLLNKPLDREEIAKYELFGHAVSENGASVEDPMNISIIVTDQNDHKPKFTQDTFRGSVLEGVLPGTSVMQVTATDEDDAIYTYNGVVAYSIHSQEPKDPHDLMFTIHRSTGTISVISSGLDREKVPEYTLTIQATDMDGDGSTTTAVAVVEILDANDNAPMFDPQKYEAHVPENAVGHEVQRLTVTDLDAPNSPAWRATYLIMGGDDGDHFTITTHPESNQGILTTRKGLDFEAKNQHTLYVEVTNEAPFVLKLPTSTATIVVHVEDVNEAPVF

Row | Binder | % of binding of Clone #153 to human P-cadherin-Fc | Human P-cadherin-Fc binding (OD450) | Z Score
1 | B1 | 100% | 1.32 OD450 | 0
2 | B2 | 61% | 0.81 OD450 | -0.8
3 | B3 | 163% | 2.16 OD450 | 1.3
4 | B4 | 173% | 2.29 OD450 | 1.5
5 | B5 | 141% | 1.86 OD450 | 0.9
6 | B6 | 70% | 0.92 OD450 | -0.6
7 | B7 | 14% | 0.18 OD450 | -1.8
8 | B8 | 172% | 2.28 OD450 | 1.5
9 | B9 | 166% | 2.19 OD450 | 1.4
10 | B10 | 163% | 2.16 OD450 | 1.3
11 | B11 | 153% | 2.02 OD450 | 1.1
12 | B12 | 170% | 2.25 OD450 | 1.5
13 | B13 | 104% | 1.38 OD450 | 0.1
14 | B14 | 173% | 2.29 OD450 | 1.6
15 | B15 | 173% | 2.28 OD450 | 1.5

Molecular target: human P-cadherin, cell surface expressed (human, UniProt P22223 108-829)
Assay: cell-based or functional assay

Sequence of human P-cadherin, cell surface expressed (P22223 108-829): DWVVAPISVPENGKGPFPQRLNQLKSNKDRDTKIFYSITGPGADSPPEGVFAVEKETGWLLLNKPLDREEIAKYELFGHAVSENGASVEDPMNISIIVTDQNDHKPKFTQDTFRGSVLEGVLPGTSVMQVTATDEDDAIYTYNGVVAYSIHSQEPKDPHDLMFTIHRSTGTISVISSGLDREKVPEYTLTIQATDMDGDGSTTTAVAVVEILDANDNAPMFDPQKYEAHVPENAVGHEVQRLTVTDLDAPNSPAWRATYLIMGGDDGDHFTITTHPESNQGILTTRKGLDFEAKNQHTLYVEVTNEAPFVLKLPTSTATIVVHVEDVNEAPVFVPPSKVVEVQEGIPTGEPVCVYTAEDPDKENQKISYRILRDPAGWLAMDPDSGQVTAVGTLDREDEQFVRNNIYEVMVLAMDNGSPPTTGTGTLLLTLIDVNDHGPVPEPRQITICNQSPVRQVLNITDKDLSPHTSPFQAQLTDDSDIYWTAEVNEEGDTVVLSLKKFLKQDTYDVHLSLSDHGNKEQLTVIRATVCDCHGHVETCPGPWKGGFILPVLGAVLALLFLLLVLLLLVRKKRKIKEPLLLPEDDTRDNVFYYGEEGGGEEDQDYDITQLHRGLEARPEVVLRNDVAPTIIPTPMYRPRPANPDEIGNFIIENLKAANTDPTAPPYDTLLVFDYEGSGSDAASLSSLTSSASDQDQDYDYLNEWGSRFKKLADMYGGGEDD

Row | Binder | T cell directed cytotoxicity EC50, H1650 LDH 24 hr 30:1 D41183 | T cell directed cytotoxicity EC50, HCT116 Luc 48 hr 10:1 D43905
16 | B16 | 0.8 pM | 0.5 pM

Molecular target: T2, cynomolgus monkey P-cadherin ECD (cynomolgus monkey)
T2 construct: extracellular domain; also called cyno P-cadherin ECD; Cyno P-cadherin
Assay: SPR Biacore
Protocol: Binding affinity of EK-DART proteins to P-cadherin and CD3 was analyzed by SPR using a BIACORE® 3000 biosensor (GE Healthcare). The antigens huCD3εδ and either human P-cadherin-Fc or human/cynomolgus monkey/murine P-cadherin-ECD were immobilized on the CM-5 sensor chip by amine coupling kit as recommended by the manufacturer. […] All EK-DART proteins in Tables 15 and 16 comprise CD3-2.
All EK-DART proteins in Table 17 comprise CD3-2.

Row | Binder | Kd | koff | kon
17 | B17 | 0.966 nM | 0.000744 s⁻¹ | 771000 M⁻¹ s⁻¹
18 | B18 | 4.17 nM | 0.00458 s⁻¹ | 1.11e+06 M⁻¹ s⁻¹
19 | B19 | 3.93 nM | 0.0039 s⁻¹ | 1.04e+06 M⁻¹ s⁻¹
20 | B20 | 0.483 nM | 0.000383 s⁻¹ | 802000 M⁻¹ s⁻¹
21 | B21 | 0.37 nM | 0.000309 s⁻¹ | 834000 M⁻¹ s⁻¹
22 | B22 | 1.31 nM | 0.000216 s⁻¹ | 167000 M⁻¹ s⁻¹

Molecular target: T1, P-cadherin-ECD1-3-Fc protein (human …)
Assay: phage scFv ELISA, coated P-cadherin-ECD1-3-Fc
Remark: another data set of the same source
Summary of the method: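 Plates coated overnight at 4° C with 2 μg/mL protein (or negative control protein) in PBS+Ca²⁺/Mg²⁺, blocked in 3% milk, then phage samples added 1 h at room temperature. Bound phage detected with anti-M13-HRP (1:2000) and TMB, stopped with H₂SO₄, absorbance read at 450 nm.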

Row | Binder | % of binding of Clone #153 to human P-cadherin-Fc | Human P-cadherin-Fc binding (OD450) | Z Score
23 | B1 | 100% | 1.32 OD450 | 0
